Experimental data: paper PMC2676678

How the values were obtained:
Conditions in all cases: holding potential -50 mV; Na+ medium (about 96 mM Na+); Hill coefficient about 1
[1] = substrate: CC(C)C[C@@H](N)C(=O)O; test: cells, lysate or membranes
[2] = substrate: CC(C)C[C@H](N)C(=O)O; test: cells, lysate or membranes
[3] = substrate: CC(C)[C@@H](N)C(=O)O; test: cells, lysate or membranes
[4] = substrate: CC(C)[C@H](N)C(=O)O; test: cells, lysate or membranes
[5] = substrate: CC[C@H](C)[C@H](N)C(=O)O; test: cells, lysate or membranes
[6] = substrate: C[C@H](N)C(=O)O; test: cells, lysate or membranes
[7] = substrate: N[C@@H](CO)C(=O)O; test: cells, lysate or membranes
[8] = substrate: N[C@H](CO)C(=O)O; test: cells, lysate or membranes
[9] = substrate: N[C@H](Cc1ccccc1)C(=O)O; test: cells, lysate or membranes
[10] = substrate: O=C(O)[C@@H]1CCCN1; test: cells, lysate or membranes
[11] = substrate: O=C(O)[C@H]1CCCN1; test: cells, lysate or membranes
[12] = substrate: CSCC[C@@H](N)C(=O)O; type: cell-based, Drosophila melanogaster
[13] = substrate: CSCC[C@H](N)C(=O)O; type: cell-based, Drosophila melanogaster
[14] = substrate: N[C@@H](CS)C(=O)O; type: cell-based, Drosophila melanogaster
[15] = substrate: N[C@@H](Cc1c[nH]cn1)C(=O)O; type: cell-based, Drosophila melanogaster
[16] = substrate: N[C@@H](Cc1ccc(O)c(O)c1)C(=O)O; type: cell-based, Drosophila melanogaster
[17] = substrate: N[C@@H](Cc1ccc(O)cc1)C(=O)O; type: cell-based, Drosophila melanogaster
[18] = substrate: N[C@@H](Cc1ccccc1)C(=O)O; type: cell-based, Drosophila melanogaster
[19] = substrate: N[C@H](CS)C(=O)O; type: cell-based, Drosophila melanogaster
[20] = substrate: N[C@H](Cc1ccc(O)cc1)C(=O)O; type: cell-based, Drosophila melanogaster

B1: DmNAT1 (Drosophila melanogaster) (protein)
chain: MELKGVQPSNGSSNGSGNGATNAASTEKTDAEKPTAERTNWGNGLEFLMSCISVSVGLGNVWRFPFTAYENGGGAFLIPYIIVLFLIGKPMYYLEMIMGQFTSQGTVKIWSVVPGFVGVGYGQAFGTICIISYYSSLLALTLYYLFVSFQSELPWSYCRDEWTNCVNSRPQEYVDNLLTGVSLANESARNLSGIVANDETEKLQSSSELYFLNVVIKEKLDISDGVGDPDWKLTLALFVAWVVIFLVIMRGVKSSGKAAYFLALFPYVVLFVLLIRAVTLEGARDGILFFLEPQWGELLNPTVWKEAVVQCFFSLAVGSGPIIMFASYNRFDHGIYRDAMIVTTLDTLTSLLGGITIFAILGNLAHNLQIENIRDVVRSGTGLAFISYPDAISKFQAVPQLFSVLFFFMLFVLGIGSIVALQSTIVTIICDQFKGWKYWKVALTTSVCGFLMGLVYVTPGGQWILTLVDFYGGTYVVFILAIFELAGIVWVYGLQNFCDDIEFMCNRRVSLYWRVCWSFFTPVMMIIIFIYSMVTIEPIKYSELYFPEAANIAGWLLFAIGAAQFPLWGLWYISRHPQGTYWKSLKASLKPSDRWGPANPEIRREWVIFKNQKAAQRATQKDTSKLGFFWRKVANFCGSNK
K0.5 [1]: 92.2 ± 34.8 µM | K0.5 [2]: 126.2 ± 39.8 µM | K0.5 [3]: 170.2 ± 38.3 µM | K0.5 [4]: 96.8 ± 20.2 µM | K0.5 [5]: 130.1 ± 37.5 µM | K0.5 [6]: 255.6 ± 76.8 µM | K0.5 [7]: 119.7 ± 18.6 µM | K0.5 [8]: 128.1 ± 21.3 µM | K0.5 [9]: 55.2 ± 10.3 µM | K0.5 [10]: 127.6 ± 44.9 µM | K0.5 [11]: 142.4 ± 38.5 µM | K0.5 [12]: 24.7 ± 9.9 µM | K0.5 [13]: 39.8 ± 12.7 µM | K0.5 [14]: 199.1 ± 18.8 µM | K0.5 [15]: 188.5 ± 37.9 µM | K0.5 [16]: 242.3 ± 57.9 µM | K0.5 [17]: 96.8 ± 17.9 µM | K0.5 [18]: 58.3 ± 5.3 µM | K0.5 [19]: 141.0 ± 28.6 µM | K0.5 [20]: 64.3 ± 15.3 µM
